This note sets out measurements from US20240018502A1.

The chains are these.
B1: MTSP-1 protease domain I41D/F99L/C122S/G151N (enzyme)
chain: VVGGTDADEGEWPWQVSLHALGQGHDCGASLISPNWLVSAAHCYIDDRGFRYSDPTQWTAFLGLHDQSQRSAPGVQERRLKRIISHPFFNDFTLDYDIALLELEKPAEYSSMVRPISLPDASHVFPAGKAIWVTGWGHTQYGGTNALILQKGEIRVINQTTCENLLPQQITPRMMCVGFLSGGVDSCQGDSGGPLSSVEADGRIFQAGVVSWGDGCAQRNKPGVYTRLPLFRDWIKENTGV
B2: MTSP-1 protease domain I41E/F99L/C122S/G151N/Q175G (enzyme)
chain: B1 chain with D26E, Q169G
B3: MTSP-1 protease domain I41S/F99L/C122S/Q175P/Q192V (enzyme)
chain: B1 chain with D26S, N145G, Q169P, Q188V
B4: MTSP-1 protease domain I41E/F99L/C122S/Q175G/Q192T (enzyme)
chain: B1 chain with D26E, N145G, Q169G, Q188T
B5: MTSP-1 protease domain I41D/D96E/F99L/C122S/G151N/Q192T/D217E (enzyme)
chain: B1 chain with D91E, Q188T, D214E
B6: MTSP-1 protease domain I41D/D96E/C122S/G151N/Q192T (enzyme)
chain: B1 chain with D91E, L94F, Q188T
B7: MTSP-1 protease domain I41D/G43A/F99L/C122S/G151N/Q192T/P232S/K239R (enzyme)
chain: B1 chain with G28A, Q188T, P229S, K236R
B8: MTSP-1 protease domain I41D/Y59F/F99L/C122S/G151N/Q192T/V213A (enzyme)
chain: B1 chain with Y44F, Q188T, V210A
B9: MTSP-1 protease domain I41D/F99L/M117T/C122S/G151N/Q192T/A204D/D217E (enzyme)
chain: B1 chain with M112T, Q188T, A200D, D214E
B10: MTSP-1 protease domain I41S/F99L/C122S/G151N/Q175P (enzyme)
chain: B1 chain with D26S, Q169P
B11: MTSP-1 protease domain I41D/D96E/F99L/C122S/G151N/Q192T (enzyme)
chain: B1 chain with D91E, Q188T
B12: MTSP-1 protease domain I41D/G43A/D96E/F99L/C122S/G151N/Q192T (enzyme)
chain: B1 chain with G28A, D91E, Q188T
B13: MTSP-1 I41S/D60bT/F60eS/Y60gW/D96K/F97G/ins97aV/T98P/F99L/C122S/G151H/Q175L/Q192D (enzyme)
chain: VVGGTDADEGEWPWQVSLHALGQGHSCGASLISPNWLVSAAHCYIDTRGSRWSDPTQWTAFLGLHDQSQRSAPGVQERRLKRIISHPFFNKGVPLDYDIALLELEKPAEYSSMVRPISLPDASHVFPAGKAIWVTGWGHTQYGGTHALILQKGEIRVINQTTCENLLPQLITPRMMCVGFLSGGVDSCDGDSGGPLSSVEADGRIFQAGVVSWGDGCAQRNKPGVYTRLPLFRDWIKENTGV
B14: MTSP-1 Q38H/D60bT/F60eS/Y60gW/D96K/F97G/ins97aV/T98P/F99L/C122S/G151H/Q175L/Q192D (enzyme)
chain: B13 chain with Q23H, S26I

Positions count from the first letter of the chain named. Numbers in names are those of the source.

The target of the assay is plasma purified human complement protein C3 (human) (UniProt P01024). As to the kind of experiment: cell-based or functional assay.
Chain of plasma purified human complement protein C3 (human) (P01024 23-667, chain 1 of 2): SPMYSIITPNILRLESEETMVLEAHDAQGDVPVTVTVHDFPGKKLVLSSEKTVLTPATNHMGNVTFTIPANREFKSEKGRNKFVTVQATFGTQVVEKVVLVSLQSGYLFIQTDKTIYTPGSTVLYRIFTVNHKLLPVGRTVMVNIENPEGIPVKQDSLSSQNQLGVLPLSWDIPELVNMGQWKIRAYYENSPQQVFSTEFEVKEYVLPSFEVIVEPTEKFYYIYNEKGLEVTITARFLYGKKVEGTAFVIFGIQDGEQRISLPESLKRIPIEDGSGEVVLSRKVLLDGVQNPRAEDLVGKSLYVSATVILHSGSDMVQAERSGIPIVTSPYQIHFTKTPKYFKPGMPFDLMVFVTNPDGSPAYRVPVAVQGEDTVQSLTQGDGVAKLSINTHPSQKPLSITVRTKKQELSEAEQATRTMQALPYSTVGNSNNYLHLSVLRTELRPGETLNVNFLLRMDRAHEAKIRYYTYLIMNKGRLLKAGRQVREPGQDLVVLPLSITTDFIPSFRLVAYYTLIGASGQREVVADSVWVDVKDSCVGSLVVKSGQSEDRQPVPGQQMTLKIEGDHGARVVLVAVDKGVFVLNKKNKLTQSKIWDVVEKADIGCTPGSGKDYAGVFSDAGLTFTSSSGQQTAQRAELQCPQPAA
Chain of plasma purified human complement protein C3 (human) (P01024 672-1663, chain 2 of 2): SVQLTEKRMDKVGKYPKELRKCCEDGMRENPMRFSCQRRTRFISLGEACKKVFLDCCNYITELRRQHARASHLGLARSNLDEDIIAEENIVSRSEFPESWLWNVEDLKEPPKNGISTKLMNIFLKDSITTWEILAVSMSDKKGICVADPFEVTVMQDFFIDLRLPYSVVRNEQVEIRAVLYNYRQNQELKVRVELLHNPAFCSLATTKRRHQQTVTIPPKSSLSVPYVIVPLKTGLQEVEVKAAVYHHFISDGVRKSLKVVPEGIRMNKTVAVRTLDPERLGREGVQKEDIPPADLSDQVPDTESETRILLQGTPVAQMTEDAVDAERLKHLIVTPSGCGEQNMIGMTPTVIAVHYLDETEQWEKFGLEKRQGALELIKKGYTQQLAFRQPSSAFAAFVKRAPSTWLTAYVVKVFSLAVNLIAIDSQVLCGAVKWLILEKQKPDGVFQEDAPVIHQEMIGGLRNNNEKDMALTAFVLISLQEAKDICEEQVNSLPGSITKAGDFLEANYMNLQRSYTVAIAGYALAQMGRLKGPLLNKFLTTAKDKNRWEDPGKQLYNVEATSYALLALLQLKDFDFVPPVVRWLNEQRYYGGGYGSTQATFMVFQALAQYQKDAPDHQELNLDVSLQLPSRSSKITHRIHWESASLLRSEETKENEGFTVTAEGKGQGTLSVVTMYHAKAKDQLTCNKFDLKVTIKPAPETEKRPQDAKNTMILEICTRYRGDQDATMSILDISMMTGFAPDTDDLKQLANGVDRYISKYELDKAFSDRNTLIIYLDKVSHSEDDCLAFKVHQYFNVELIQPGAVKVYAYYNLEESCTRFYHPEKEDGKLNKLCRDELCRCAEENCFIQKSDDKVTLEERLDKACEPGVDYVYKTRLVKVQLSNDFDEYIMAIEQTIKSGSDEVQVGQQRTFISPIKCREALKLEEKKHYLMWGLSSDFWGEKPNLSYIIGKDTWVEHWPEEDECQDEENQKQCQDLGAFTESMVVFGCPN
B1 displayed an EC50 hC3 cleavage of 0.0169 µM.

For the molecule B2, the EC50 hC3 cleavage was found to be 0.02 µM.

Take B3: the EC50 hC3 cleavage came to 0.0643 µM. On the same count and under the same terms, the same measure for B4: 0.0339 µM; for B5: 0.0276 µM; for B6: 0.0788 µM. The same measure, in the same setting: the same measure for B7: 0.0376 µM; for B8: 0.414 µM; for B9: 0.0253 µM.

Molecule B10 showed an EC50 hC3 cleavage of 0.0139 µM. The molecule B11 registered an EC50 hC3 cleavage of 0.0515 µM.

B12 returned an EC50 hC3 cleavage of 0.045 µM. The molecule B13 had an EC50 of hC3 cleavage of 0.0171 µM. In turn, B14 had an EC50 of hC3 cleavage of 0.215 µM.
